Laboratory results as given in patent publication US20220056517A1 (OXFORD NANOPORE TECHNOLOGIES, published 2022).

Assays:
[1] = target: T1, CsgG Y51A/F56Q/N91R/K94Q/R97W/R192D-del(V105-I107) pore (E. coli, UniProt P0AEA2 16-277); assay: last panel; reader head discrimination from DNA translocation
T1 chain: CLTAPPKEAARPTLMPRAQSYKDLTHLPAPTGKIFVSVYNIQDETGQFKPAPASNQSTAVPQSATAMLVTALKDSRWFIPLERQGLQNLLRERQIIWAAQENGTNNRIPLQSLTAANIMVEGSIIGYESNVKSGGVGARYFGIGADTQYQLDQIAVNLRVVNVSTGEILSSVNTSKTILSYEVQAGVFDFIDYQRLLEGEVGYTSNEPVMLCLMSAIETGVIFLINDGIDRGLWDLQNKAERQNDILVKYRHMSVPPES

[2] = target: T2, CsgG Y51S/N55V/F56Q/N91R/K94Q/R97W-del(V105-I107) pore containing the C terminal strep tag (E. coli, UniProt P0AEA2 16-277); assay: pore 8; in vitro reconstitution; DNA translocation, signal:noise
T2 construct: also called Y515/N55V/F56Q/N91R/K94Q/R97W-del(V105-I107) (sic); not shown: C-terminal Strep tag
T2 chain: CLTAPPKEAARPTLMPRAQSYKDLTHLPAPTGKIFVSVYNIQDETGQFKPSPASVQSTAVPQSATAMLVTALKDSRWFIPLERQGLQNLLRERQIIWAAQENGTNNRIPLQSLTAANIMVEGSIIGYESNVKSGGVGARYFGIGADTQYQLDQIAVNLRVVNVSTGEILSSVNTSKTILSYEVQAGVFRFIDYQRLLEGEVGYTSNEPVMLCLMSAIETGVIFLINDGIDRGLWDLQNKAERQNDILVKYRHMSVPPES

[3] = target: T3, CsgG Y51T/N55V/F56Q/N91R/K94Q/R97W-del(V105-I107) pore containing the C terminal strep tag (E. coli, UniProt P0AEA2 16-277); assay: pore 9; in vitro reconstitution; DNA translocation, signal:noise
T3 construct: not shown: C-terminal Strep tag
T3 chain: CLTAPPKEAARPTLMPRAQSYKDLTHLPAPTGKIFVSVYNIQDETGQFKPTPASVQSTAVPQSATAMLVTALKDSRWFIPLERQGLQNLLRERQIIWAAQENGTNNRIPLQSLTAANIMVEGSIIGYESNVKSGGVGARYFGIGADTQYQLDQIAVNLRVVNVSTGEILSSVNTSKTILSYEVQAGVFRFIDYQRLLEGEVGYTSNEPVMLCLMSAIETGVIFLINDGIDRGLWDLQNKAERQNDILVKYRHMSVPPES

[4] = target: T4, CsgG Y51A/N55I/F56Q/N91R/K94Q/R97W-del(V105-I107) pore containing the C terminal strep tag (E. coli, UniProt P0AEA2 16-277); assay: pore 2; in vitro reconstitution; DNA translocation, signal:noise
T4 construct: also called Y51A/N551/F56Q/N91R/K94Q/R97W-del(V105-I107) (sic); not shown: C-terminal Strep tag
T4 chain: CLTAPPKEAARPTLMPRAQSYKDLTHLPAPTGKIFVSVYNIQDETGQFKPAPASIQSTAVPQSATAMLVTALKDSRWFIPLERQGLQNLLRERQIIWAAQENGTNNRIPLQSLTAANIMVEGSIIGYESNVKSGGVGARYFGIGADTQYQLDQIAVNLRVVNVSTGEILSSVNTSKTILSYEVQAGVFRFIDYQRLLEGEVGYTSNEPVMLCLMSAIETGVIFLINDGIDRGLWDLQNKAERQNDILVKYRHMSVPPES

[5] = target: T5, CsgG Y51A/F56A/N91R/K94Q/R97W-del(V105-I107) pore containing the C terminal strep tag (E. coli, UniProt P0AEA2 16-277); assay: pore 4; in vitro reconstitution; DNA translocation, signal:noise
T5 construct: not shown: C-terminal Strep tag
T5 chain: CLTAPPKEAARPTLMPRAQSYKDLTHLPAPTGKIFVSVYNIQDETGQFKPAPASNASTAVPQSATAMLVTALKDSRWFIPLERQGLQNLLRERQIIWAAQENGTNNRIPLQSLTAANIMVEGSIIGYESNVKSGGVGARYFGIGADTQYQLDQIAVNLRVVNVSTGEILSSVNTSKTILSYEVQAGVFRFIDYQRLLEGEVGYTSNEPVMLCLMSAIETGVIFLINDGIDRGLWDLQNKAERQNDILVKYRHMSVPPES

[6] = target: T6, CsgG Y51S/N55A/F56Q/N91R/K94Q/R97W-del(V105-I107) pore (E. coli, UniProt P0AEA2 16-277); assay: pore 7; in vitro reconstitution; DNA translocation, signal:noise
T6 chain: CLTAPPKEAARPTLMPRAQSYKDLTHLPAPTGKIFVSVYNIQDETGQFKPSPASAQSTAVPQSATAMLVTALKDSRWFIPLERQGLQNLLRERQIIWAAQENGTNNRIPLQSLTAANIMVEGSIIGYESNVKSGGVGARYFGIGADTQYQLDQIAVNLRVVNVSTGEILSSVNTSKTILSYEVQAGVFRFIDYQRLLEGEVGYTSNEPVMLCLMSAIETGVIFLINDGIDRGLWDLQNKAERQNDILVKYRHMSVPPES

[7] = target: T7, CsgG Y51A/F56V/N91R/K94Q/R97W-del(V105-I107) pore (E. coli, UniProt P0AEA2 16-277); assay: pore 6; in vitro reconstitution; DNA translocation, signal:noise
T7 chain: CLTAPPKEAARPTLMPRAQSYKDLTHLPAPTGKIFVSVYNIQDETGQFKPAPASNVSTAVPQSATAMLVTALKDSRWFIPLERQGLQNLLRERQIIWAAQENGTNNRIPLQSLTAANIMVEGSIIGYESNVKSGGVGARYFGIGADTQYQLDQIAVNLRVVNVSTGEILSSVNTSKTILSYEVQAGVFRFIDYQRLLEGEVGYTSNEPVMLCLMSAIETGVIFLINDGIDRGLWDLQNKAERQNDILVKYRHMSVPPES

[8] = target: T8, CsgG Y51A/F56Q/N91R/K94Q/R97W-del(V105-I107) pore containing the C terminal strep tag (E. coli, UniProt P0AEA2 16-277); assay: pore 1; in vitro reconstitution; DNA translocation, signal:noise
T8 construct: Oligomeric CsgG pore; not shown: C-terminal Strep tag
T8 chain: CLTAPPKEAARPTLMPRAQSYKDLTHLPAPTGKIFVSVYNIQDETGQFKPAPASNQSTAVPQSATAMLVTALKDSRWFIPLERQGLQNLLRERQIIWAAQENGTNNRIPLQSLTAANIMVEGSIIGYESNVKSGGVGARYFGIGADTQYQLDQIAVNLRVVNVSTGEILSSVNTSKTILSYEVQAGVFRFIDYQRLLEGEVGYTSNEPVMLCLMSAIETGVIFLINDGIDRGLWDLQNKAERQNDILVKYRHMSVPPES

Measured: binding result

GTMTFQFRNPNFGGNPSNGAFLLNSAQAQNSYKDPSYNDDFGIET [CsgF-N17S-(1-45) peptide]
binds: [1]

GTMTFQFRNPNFGGNPNNGAFLLNSAQAQNSYKDP (also called CsgF (1-35) peptide) [CsgF-(1-35) synthetic peptide]
binds: [2] | [3] | [4] | [5] | [6] | [7] | [8]
